Results reported in publication PMC9258132, “Multi-omics profiling identifies a deregulated FUS-MAP1B axis in ALS/FTD–associated UBQLN2 mutants”.

Biological target: MBP-FUS-His6 WT (UniProt P35637 1-526)
Assay: EMSA; 5 mM MgCl2, 0.1 mg/ml yeast tRNA; 5 nM RNA, 0-10 uM protein; 20 mM NaPO4 pH 8, 150 mM NaCl, 5% glycerol, 1 mM DTT, 5 mM MgCl2, 0.5 mg/ml BSA, 0.1 mg/ml yeast tRNA, 1 U/ul RNase inhibitor, 20 min RT; 6% native PAGE in 0.5x TBE
Details: protein: recombinant; tags: N-terminal MBP, C-terminal His6; hairpin with 3' single-stranded tail

Sequence of MBP-FUS-His6 WT (P35637 whole entry): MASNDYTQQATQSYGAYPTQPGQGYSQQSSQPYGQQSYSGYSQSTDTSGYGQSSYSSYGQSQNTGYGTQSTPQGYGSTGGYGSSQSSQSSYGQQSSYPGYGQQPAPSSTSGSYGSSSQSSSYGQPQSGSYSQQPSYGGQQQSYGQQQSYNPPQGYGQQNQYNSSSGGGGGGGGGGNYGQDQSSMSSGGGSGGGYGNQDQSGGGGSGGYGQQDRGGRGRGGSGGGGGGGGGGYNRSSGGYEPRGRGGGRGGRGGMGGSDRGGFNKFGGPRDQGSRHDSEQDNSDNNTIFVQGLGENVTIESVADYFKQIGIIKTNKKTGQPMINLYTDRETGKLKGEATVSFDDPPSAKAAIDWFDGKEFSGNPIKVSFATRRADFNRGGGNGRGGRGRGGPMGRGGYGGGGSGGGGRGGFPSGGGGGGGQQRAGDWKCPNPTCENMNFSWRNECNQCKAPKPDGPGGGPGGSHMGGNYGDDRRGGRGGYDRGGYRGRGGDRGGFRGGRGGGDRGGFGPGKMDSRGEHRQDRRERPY

GGAUCUUUAACUACUCAAGAUACUGAACAUGACAUGGUA (structured_RNA) [SON pre-mRNA stem loop with downstream GGU motif]: binds.
